Assay results as given in the supplement of paper PMC9170038.

System: MS2 coat protein
Assay: apparent KD of MS2 coat protein; designed switch direction (-1 OFF switch, 1 ON switch): -1; higher = weaker reporter binding
Method in brief: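 RNA switches sharing common flanks were transcribed by stalled E. coli RNA polymerase on Illumina chips. A doubling series of SNAP-549-labelled MS2 coat protein, from 0.7 or 1.5 nM to 3 µM, was applied in Tris-HCl pH 7.5 buffer with KCl, MgCl2, BSA, DTT, tRNA and Tween-20. Each step lasted 0.8–1.5 h at the bottom of the series and 10–20 min at the top. Normalised cluster fluorescence was curve-fitted, giving apparent KD as the per-design median over clusters.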

[1] = Eterna round: R95, input ligand: FMN 200 uM
[2] = Eterna round: R95, input ligand: microRNA oligo, concentration not stated
[3] = Eterna round: R95, input ligand: none
[4] = input ligand: microRNA oligo, concentration not stated

Sequence | apparent KD of MS2 coat protein [1] [µM] | apparent KD of MS2 coat protein [2] [µM] | apparent KD of MS2 coat protein [3] [µM] | apparent KD of MS2 coat protein (input ligand: FMN 200 uM) [µM] | apparent KD of MS2 coat protein [4] [µM] | apparent KD of MS2 coat protein (input ligand: none) [µM]
AUUACUAACACGAAAGUGUUAGUACAAUAAGCUUGUGAAACAUGAGGAUCACCCAUGUCCUCAUAAGCUCGUCUUAA [salish99_TOv2_r3_010] (puzzle: Sensor v3, turn-off variant 2) | 0.014 | 0.217 | 0.0119 | – | – | –
AGUACUAUCACGAAAGUGAUAGUACAAAGAGCAAGUGGAACAUGAGGAUCACCCAUGUCCUCAUAUGCUCGUCUUAU [salish99-s2-v2-x003] (Eterna round: R96, puzzle: Sensor v2, turn-off variant 2) | – | – | – | 0.0146 | 0.322 | 0.0161
CUGGUUGUCGAGGAUAUGCACCGGCUCGCUGACGCAGAAGGCGACACAUGAGGAUCACCCAUGUCGGUUCGCGU [salish99_ex6_r004_438] (Eterna round: R97, puzzle: Exclusion 6) | – | – | – | 0.029 | – | 0.0191
AGAGCACGAGGAUAUACAAGGAUAACUCGCAGAUCGUCAGUACAUGAGGAUCACCCAUGUAGAAGGUGUUAGCA [Eternabot (Original) Solution 6] (Eterna round: R97, puzzle: Exclusion 2) | – | – | – | 0.0412 | – | 0.0589
GGAUCUACUGAGGAUAUUACAUCACCCGACUGAUAAGAAGGCAGAACAUGAGGAUCACCCAUGUGGGUAGCCAC [Polaris5] (Eterna round: R97, puzzle: Exclusion 6) | – | – | – | 0.0563 | – | 0.0357
GGUUCGAAAGUGAGGAUAUGCUGGUCCUUGGAUCAGCAGAAGGCACAUGAGGAUCACCCAUGUGGUAACGGACC [Mat - Exclusion 4 - Eli Mod - D37] (Eterna round: R97, puzzle: Brourd's mod of Exclusion 4) | – | – | – | 0.122 | – | 0.0252
CAGUACAGAGGAUAUACAUGAGGAUCACCCAUGUGUUUCAGCUAGGAAACUAGCGAAUGUAGAAGGCUGUACUG [jl-ex3-4.24 salish99 mod] (Eterna round: R97, puzzle: Exclusion 3) | – | – | – | 0.178 | – | 0.0383
CUAAAUCAUGUAGGAUAUGCGUGGCAAAGCUAUGCAGAAGGACAUGAGGAUCACCCAUGUGCUUCCGUCUGAGAACAGACGGUA [Mat - Exclusion NG 1 - Mod of JL - D23] (Eterna round: R96, puzzle: Exclusion NG 1) | – | – | – | 0.306 | 0.0496 | 0.0682
UAUAUGUGAGGAUAUCAGGUGUGCUAGCGAACUGGUACAUCUGAGAAGGCACAUGAGGAUCACCCAUGUAUCUU [Mat - Exclusion 4 - Mod of JL - D46] (puzzle: Exclusion 4) | – | 0.0263 | – | – | – | –
AAGAAACAUGAGGAUCACCCAUGUGAGGAUAUGAAAAAGAAAAGAAAAUAAAGAAGAAUCAGAAGGCACAAAGG [Mat - Mod of Hog D3] (puzzle: Exclusion 1) | 0.0377 | 0.0344 | 0.0461 | – | – | –
CCCACCUCAUGAACAACAUGAGGAUCACCCAUGUUGAAGACUAAGGAUAUCGUACUCGAUGAAUGCGAGAAGGUGGCACUUCGA [Eternabot solution 36] (Eterna round: R96, puzzle: Exclusion NG 3) | – | – | – | 0.0373 | 0.0207 | 0.0287
AAUAACAGAGGAUAUACUGUUUUAUGUGUUUAUUAUUUUAAACAUGAGGAUCACCCAUGUAGAAGGCUGAAUAA [JMF 13] (puzzle: Exclusion 2) | – | 0.037 | – | – | – | –
AAUUCACAUGAGGAUCACCCAUGUCAGGAUAUGGUUUCACGUGUUUCGGUGCGUGAGGCCAGAAGGGACAGCUA (puzzle: Exclusion 1) | – | 0.0497 | – | – | – | –
GCAGUAUGAGUUAGGAUAUGAUGAUUUGAAAUGGGUCAGAAGGAACUUGAGGAUCACCCAAGUAAUGAAUUGGU [JR_BMEx4_Sub073] (Eterna round: R97, puzzle: Brourd's mod of Exclusion 4) | – | – | – | 0.0946 | – | 0.0527
GCACGGAAAUUCCAUAAAACCACAUGAGGAUCACCCAUGUCUCAGGAUAUGGUCUGGAUUACAGGCCAGAAGGGAGAACCGUGC [Eli exng3 - 059] (Eterna round: R96, puzzle: Exclusion NG 3) | – | – | – | 0.0151 | 0.0102 | 0.0118
CUCUUGUCAGGAUAUCUAAGCUGCCUCCCGGUAGCCGAAUUAGAGAAGGGACAUGAGGAUCACCCAUGUAAAAG [Qubile] (puzzle: Exclusion 4) | 0.0583 | 0.16 | 0.28 | – | – | –
CCUCAACAGUAGGAUAUCAUCAAACUAUUGUGAUGAGAAGGACUGACAUGAGGAUCACCCAUGUUAACGUGAUG [Exclusion 6 - 6:c] (puzzle: Exclusion 6) | 0.0708 | 0.021 | 0.0204 | – | – | –
UUGAUGUAAGGAUAUCGUGCAAGUUUCAAAAGAGGCUUGUGCGAGAAGGUACAUGAGGAUCACCCAUGUAGGUU [Omei Ex4 B8] (Eterna round: R97, puzzle: Exclusion 4) | – | – | – | 0.113 | – | 0.0317
UCCUGACAUGAGGAUCACCCAUGUAAGGAUAUUAAAACGACUGAACAACUCAGCGGUAUAAGAAGGUACAUGUA [EX1 A.10] (Eterna round: R97, puzzle: Exclusion 1) | – | – | – | 0.012 | – | 0.0144
GACAUGAGGAUCACCCAUGUAACCUCAUGUAGGAAGGAGAGUAAGGAUAUAUAUGAAGGAAUGAAGUAGAAGGUGCAUAGAGAG [Default title] (Eterna round: R96, puzzle: Exclusion NG 3) | – | – | – | 0.539 | 1.35 | 0.854
CUGGAUAGAGGAUAUUGUACUGCUGACAUGAGGAUCACCCAUGUAUGUUAACUCGGCCGUCGAGAAGGCUAACAAA [BotMod 14 - Jieux - Exclusion 5] (Eterna round: R97, puzzle: Exclusion 5) | – | – | – | 0.0163 | – | 0.0334
AUAAUAUAUGUAGGAUAUCUGCACGAUUAGUGCAGAGAAGGACAUGAGGAUCACCCAUGUAAUUAAGAUCAAUUAUUAAAUUAU [ENG1/4-B1] (Eterna round: R96, puzzle: Exclusion NG 1) | – | – | – | 0.0843 | 0.0246 | 0.0354
GGGAGAGAGUGAGGAUAUCAAAGAACAUGAGGAUCACCCAUGUAACCUCAUGUAAGAAGAAGAAGUGAGAAGGCACAGGAGGGU [Default title] (Eterna round: R96, puzzle: Exclusion NG 2) | – | – | – | 0.463 | 0.256 | 0.628
CCCACGUGAGGAUAUUCAACGGUAAGCGAUCUAUGCACCUUGAAGAAGGCACAUGAGGAUCACCCAUGUCCUAA [Eternabot (L1) Solution 44] (Eterna round: R97, puzzle: Exclusion 4) | – | – | – | 0.0448 | – | 0.0222
GUGUAGCAAGGAUAUACAUGAGGAUCACCCAUGUGAAUAAGAUAGAAUAAGAUAAAGUGUAGAAGGUGUAGUGU [Excluse me!!! 10 - Jieux - Exclusion 3] (puzzle: Exclusion 3) | – | 0.0372 | – | – | – | –
UUGCGAAGAGGAUAUUUUGUCAUCAACAUGAGGAUCACCCAUGUCUUCCUUUAUGCUAUAGAAGAAGGCUUCCAGU [Eternabot (L2) Solution 63] (Eterna round: R97, puzzle: Exclusion 5) | – | – | – | 0.0599 | – | 0.0371
UUUGAUAGCACAGGAUAUUGUCAUUUGAGUUGUCAAGAAGGGUGUACAUGAGGAUCACCCAUGUAAUGGUUGCCUCGCUGACUU [JR_ExcNG1_Sub007] (Eterna round: R96, puzzle: Exclusion NG 1) | – | – | – | – | 0.105 | –
GAAAAGGUAGGAUAUACGAAAAAAAAGGGUAGAAAAGAAACACAUGAGGAUCACCCAUGUAGAAGGACCAAAAG [salish99_ex2_r3_016] (puzzle: Exclusion 2) | 0.078 | 0.0278 | 0.0215 | – | – | –
ACAUGUCAUUGAGGAUAUUGCACACAUGAGGAUCACCCAUGUAUACGGUUGCUCUUACGUGAGUUCGAGAAGGCGAUGUACAUU [Ex NG2 #88] (Eterna round: R96, puzzle: Exclusion NG 2) | – | – | – | 0.153 | 0.123 | 0.181
CAACGUAGUAAGGAUAUCCGGCAAAAGGCUACAGGAGAAGGUACUACAUGAGGAUCACCCAUGUGGAACUGUAA [EX6 B.7] (Eterna round: R97, puzzle: Exclusion 6) | – | – | – | 0.0168 | – | 0.0161
